Laboratory results from US10040826.

How the values were obtained:
[1] = target: A244 Δ11 gp120 (HIV-1); test: SPR; 17b flowed over A244gD- d11 (batch 110608) held on immobilised A32 (A32-triggered Env)
[2] = target: A244 Δ11 gp120 (HIV-1); test: SPR; 17b flowed over A244gD- d11 (batch 110608) held on immobilised sCD4 (sCD4-triggered Env)
[3] = target: A244 Δ11 gp120 (HIV-1); test: SPR; 17b flowed over A244gD- d11 (batch 110608) held on immobilised T8 (T8-triggered Env); response axis in RU
[4] = target: A244 Δ11 gp120 (HIV-1); test: SPR; 17b flowed over A244gD- d11 (batch 110608) held on immobilised A32 (A32-triggered Env); response axis in RU
[5] = target: A244 Δ11 gp120 (HIV-1); test: SPR; 17b flowed over A244gD- d11 (batch 110608) held on immobilised sCD4 (sCD4-triggered Env); response axis in RU
[6] = target: A244 Δ11 gp120 (HIV-1); test: SPR; A244 gp120 gD- Δ11 293T monomer batch 110608 flowed over immobilised T8; ratio to ConS gp140
[7] = target: A244 Δ11 gp120 (HIV-1); test: SPR; A244 gp120 gD- Δ11 293T monomer batch 110608 flowed over immobilised T8; response axis in RU
[8] = target: A244 gDΔ11 gp120 (Herpes simplex virus; HIV-1); test: SPR
[9] = target: A244 Δ11 gp120 (HIV-1); test: SPR
[10] = target: A244 gDΔ11 gp120 (Herpes simplex virus; HIV-1); test: SPR, mAb captured on anti-Fc surface, monomeric gp120 as analyte
[11] = target: A244 gp120 (no modifications) (HIV-1); test: as above
[12] = target: A244 Δ11 gp120 (HIV-1); test: as above
[13] = target: MN gDΔ11 gp120 (Herpes simplex virus; HIV-1); test: Kd table; row B.MN gp120, column CH01 gD+; method not given
[14] = target: MN gp120 (no modifications) (HIV-1); test: Kd table; row B.MN gp120, column CH01 gD-; method not given
[15] = target: A244 gDΔ11 gp120 (Herpes simplex virus; HIV-1); test: Kd table; row AE.A244 gp120, column CH01 gD+; method not given
[16] = target: A244 gp120 (no modifications) (HIV-1); test: Kd table; row AE.A244 gp120, column CH01 gD-; method not given
[17] = target: A244 gp120 (no modifications) (HIV-1); test: SPR titration, binding to CH01 mAb; A244 gDneg at [10] to [100], unit inferred
[18] = target: A244 Δ11 gp120 (HIV-1); test: SPR titration, binding to CH01 mAb; A244 gDneg D11 at [10] to [100], unit inferred
[19] = target: A244 gDΔ11 gp120 (Herpes simplex virus; HIV-1); test: SPR titration, binding to CH01 mAb; A244 gD+ 293Tmon at [5] to [100], unit inferred
[20] = target: A244 gp120 (no modifications) (HIV-1); test: SPR titration, binding to CH01 mAb; A244 gDneg at [10], [25], [50], [75], [100], unit inferred
[21] = target: A244 Δ11 gp120 (HIV-1); test: SPR titration, binding to CH01 mAb; A244 gDneg D11 at [10], [25], [50], [75], [100], unit inferred
[22] = target: A244 gDΔ11 gp120 (Herpes simplex virus; HIV-1); test: SPR titration, binding to CH01 mAb; A244 gD+ 293Tmon at [5], [10], [25], [50], [100], unit inferred
[23] = target: A244 Δ11 gp120 (HIV-1); test: SPR blocking on immobilized A244 Δ11 gp120, mAb injected to near saturation, then RV144 vaccinee IgG; against 7B2 control
[24] = target: A244 gDΔ11 gp120 (Herpes simplex virus; HIV-1); test: SPR titration, binding to CH01 mAb; A244 gD+ 293Tmon at [5] to [100], unit inferred; footnote: '* Fit deviation, need to lower Ag density'
[25] = target: A244 gp120 (no modifications) (HIV-1); test: SPR titration, binding to CH01 mAb; A244 gDneg at [10] to [100], unit inferred; the sheet prints a slash where a decimal point is meant (kd/ka as printed gives 3.1 µM)
[26] = target: MN gDΔ11 gp120 (Herpes simplex virus; HIV-1); test: Kd table; row B.MN gp120, column PG9 gD+; method not given
[27] = target: MN gp120 (no modifications) (HIV-1); test: Kd table; row B.MN gp120, column PG9 gD-; method not given
[28] = target: A244 gDΔ11 gp120 (Herpes simplex virus; HIV-1); test: Kd table; row AE.A244 gp120, column PG9 gD+; method not given
[29] = target: A244 gp120 (no modifications) (HIV-1); test: Kd table; row AE.A244 gp120, column PG9 gD-; method not given
[30] = target: 92TH023 gDΔ11 gp120 (Herpes simplex virus; HIV-1); test: Kd table; row AE.92TH023 gp120, column PG9 gD+; method not given
[31] = target: A244 Δ11 gp120 (HIV-1); test: SPR titration, binding to PG9 mAb (IAVI PG9); A244 gDneg D11 at [10] to [100], unit inferred
[32] = target: A244 gDΔ11 gp120 (Herpes simplex virus; HIV-1); test: SPR titration, binding to PG9 mAb (IAVI PG9); A244 gD+293Tmon at [10] to [40], unit inferred
[33] = target: A244 gDΔ11 gp120 (Herpes simplex virus; HIV-1); test: SPR titration, binding to PG9 mAb (IAVI PG9); A244 gD+293Tmon at [10], [20], [30], [40], unit inferred
[34] = target: A244 Δ11 gp120 (HIV-1); test: SPR titration, binding to PG9 mAb (IAVI PG9); A244 gDneg D11 at [10], [25], [50], [75], [100], unit inferred
[35] = target: MN-rgp120 (RV144 vaccine immunogen) (Herpes simplex virus; HIV-1); test: SPR, mAb captured on anti-Fc surface, gp120 as analyte (FIG. 28)
[36] = target: MN-rgp120 (RV144 vaccine immunogen) (Herpes simplex virus; HIV-1); test: SPR; 19b captured on anti-Fc surface, RV144 MN-rgp120 injected at 0.5-5 µg/mL; fitted curves
[37] = target: A244-rgp120 (RV144 vaccine immunogen) (Herpes simplex virus; HIV-1); test: SPR; 19b captured on anti-Fc surface, RV144 A244-rgp120 injected at 0.5-5 µg/mL; fitted curves [lower row]
[38] = target: A244 gp120 (no modifications) (HIV-1); test: SPR titration, binding to CH03 mAb; A244 gDneg at [10] to [100], unit inferred
[39] = target: A244 Δ11 gp120 (HIV-1); test: SPR titration, binding to CH03 mAb; A244 gDneg D11 at [10] to [100], unit inferred
[40] = target: A244 Δ11 gp120 (HIV-1); test: SPR titration, binding to CH03 mAb; A244 gDneg D11 at [10], [25], [50], [75], [100], unit inferred

## CCR5 receptor gp120 binding site mAb 17b (antibody)
[1]
  17b binding ratio: 0.327
[2]
  17b binding ratio: 0.316
[3]
  Req: -169
[4]
  Req: 529
[5]
  Req: 166

## T8 (C1 mAb) (antibody)
[6]
  Relative Binding Env/ConS gp140: 2.88
[7]
  Req: 1250

## V2 mAb 830A (antibody)
[8]
  fold more avid than to unmodified A244 gp120: 5 fold
[9]
  fold more avid than to unmodified A244 gp120: 5 fold
[10]
  Kd: 1.7 nM
  koff: 7e-05 s⁻¹
  kon: 41100 M⁻¹ s⁻¹
[11]
  Kd: 10.2 nM
  koff: 0.00022 s⁻¹
  kon: 21800 M⁻¹ s⁻¹
[12]
  Kd: 1.56 nM
  koff: 8.8e-05 s⁻¹
  kon: 59900 M⁻¹ s⁻¹

## V2V3 bnAb CH01 (antibody)
[8]
  fold faster association rate than with unmodified gp120: 10 fold
  fold higher affinity than for unmodified A244 gp120: 5 fold
[9]
  fold faster association rate than with unmodified gp120: 10 fold
  fold higher affinity than for unmodified A244 gp120: 5 fold
[10]
  Kd: 278 nM
  koff: 0.0099 s⁻¹
  kon: 37200 M⁻¹ s⁻¹
[11]
  Kd: 1640 nM
  koff: 0.00438 s⁻¹
  kon: 3730 M⁻¹ s⁻¹
[12]
  Kd: 317 nM
  koff: 0.0156 s⁻¹
  kon: 49000 M⁻¹ s⁻¹
[13]
  Kd: 288 nM
[14]
  Kd: 457 nM
[15]
  Kd: 200 nM
[16]
  Kd: 2100 nM
[17]
  koff: 0.00237 s⁻¹
[18]
  Kd: 430 nM
  koff: 0.0135 s⁻¹
[19]
  koff: 0.0028 s⁻¹
[20]
  kon: 760 M⁻¹ s⁻¹
[21]
  kon: 31100 M⁻¹ s⁻¹
[22]
  kon: 9800 M⁻¹ s⁻¹
[23]
  percent blocking of RV144 vaccinee IgG binding: 24.6%
[24]
  Kd: 290 nM
[25]
  Kd: 3.1 µM

## V2V3 bnAb PG9 (antibody)
[8]
  fold higher affinity than for unmodified A244 gp120: 3 fold
[9]
  fold higher affinity than for unmodified A244 gp120: 3 fold
[10]
  Kd: 48.1 nM
  koff: 0.00055 s⁻¹
  kon: 11500 M⁻¹ s⁻¹
[11]
  Kd: 183 nM
  koff: 0.0011 s⁻¹
  kon: 5000 M⁻¹ s⁻¹
[12]
  Kd: 52.6 nM
  koff: 0.00057 s⁻¹
  kon: 10900 M⁻¹ s⁻¹
[26]
  Kd: 542 nM
[27]
  Kd: 347 nM
[28]
  Kd: 128 nM
[29]
  Kd: 1100 nM
[30]
  Kd: 212 nM
[31]
  Kd: 88.7 nM
  koff: 0.00102 s⁻¹
[32]
  Kd: 62.7 nM
  koff: 0.00105 s⁻¹
[33]
  kon: 16800 M⁻¹ s⁻¹
[34]
  kon: 11500 M⁻¹ s⁻¹

## V3 mAb 19b (antibody)
[10]
  Kd: 8.24 nM
  koff: 0.0014 s⁻¹
  kon: 170000 M⁻¹ s⁻¹
[11]
  Kd: 11.8 nM
  koff: 0.00154 s⁻¹
  kon: 130000 M⁻¹ s⁻¹
[12]
  Kd: 6.54 nM
  koff: 0.00156 s⁻¹
  kon: 239000 M⁻¹ s⁻¹
[35]
  fold lower Kd than for A244-rgp120: 5 fold
[36]
  Kd: 3.4 nM
[37]
  Kd: 15.3 nM

## VRC01 (CD4 bs mAb) (antibody)
[10]
  Kd: 15.8 nM
  koff: 0.00021 s⁻¹
  kon: 13300 M⁻¹ s⁻¹
[11]
  Kd: 15.7 nM
  koff: 0.00028 s⁻¹
  kon: 17600 M⁻¹ s⁻¹
[12]
  Kd: 36.7 nM
  koff: 0.00039 s⁻¹
  kon: 9700 M⁻¹ s⁻¹

## mAb CH03 (V2,V3 conformational) (antibody)
[38]
  Kd: 5.5 µM
  koff: 0.0055 s⁻¹
[39]
  Kd: 620 nM
  koff: 0.0167 s⁻¹
[40]
  kon: 27000 M⁻¹ s⁻¹
